{
  "source": "paper PMC8064030",
  "biological_target": "HIV-1 CA carrying the A92E substitution (HIV-1)",
  "test": "cryo-EM structure",
  "data": [
    {"substance": "HIV-1 CA carrying the A92E substitution (natural protein)", "values": [
      {"measurement": "stoichiometry N", "value": 6}
    ]}
  ]
}
